For two proteins, Km, kcat and kcat/Km results are on record in paper PMC4066437, “Oxidation of cellular amino acid pools leads to cytotoxic mistranslation of the genetic code” (eLife, 2014).

Holding throughout (experiment): ATP/PPi exchange (amino acid activation)
Substrate in series [1]: NC(Cc1cccc(O)c1)C(=O)O
It counts as biochemical, Escherichia coli. The note with it: 2 mM ATP, 2 mM [32P]PPi, 10 mM MgCl2, pH 7.2, 37 °C, D,L-m-Tyr varied 20-2000 µM. An excerpt:
(§1) ATP/PPi exchange (amino acid activation) on EcPheRS (E. coli phenylalanine-tRNA synthetase)

Substrate in series [2]: N[C@@H](Cc1ccccc1)C(=O)O
It is filed as biochemical, Escherichia coli. Conditions: 2 mM ATP, 2 mM [32P]PPi, 10 mM MgCl2, pH 7.2, 37 °C, stereochemistry of Phe not given.
Source text: as §1

Substrate in series [3]: NC(Cc1cccc(O)c1)C(=O)O
It is filed as biochemical, Saccharomyces cerevisiae. Conditions: 2 mM ATP, 2 mM [32P]PPi, 10 mM MgCl2, pH 7.2, 37 °C, D,L-m-Tyr varied 20-2000 µM. An excerpt: (§2) ATP/PPi exchange (amino acid activation) on ScctPheRS (Saccharomyces cerevisiae cytoplasmic PheRS; Yeast ct)

Substrate in series [4]: N[C@@H](Cc1ccccc1)C(=O)O
It counts as biochemical, Saccharomyces cerevisiae. The note with it: 2 mM ATP, 2 mM [32P]PPi, 10 mM MgCl2, pH 7.2, 37 °C, stereochemistry of Phe not given.
Source text: as §2

B1: EcPheRS (E. coli phenylalanine-tRNA synthetase) (Escherichia coli K-12) (protein)
chain: MSHLAELVASAKAAISQASDVAALDNVRVEYLGKKGHLTLQMTTLRELPPEERPAAGAVINEAKEQVQQALNARKAELESAALNARLAAETIDVSLPGRRIENGGLHPVTRTIDRIESFFGELGFTVATGPEIEDDYHNFDALNIPGHHPARADHDTFWFDTTRLLRTQTSGVQIRTMKAQQPPIRIIAPGRVYRNDYDQTHTPMFHQMEGLIVDTNISFTNLKGTLHDFLRNFFEEDLQIRFRPSYFPFTEPSAEVDVMGKNGKWLEVLGCGMVHPNVLRNVGIDPEVYSGFAFGMGMERLTMLRYGVTDLRSFFENDLRFLKQFK
notes: His-tagged, from plasmid pQE31-EcFRS (pheS and pheT), dialysed against PPi; (alpha beta)2 heterotetramer; with Phenylalanine--tRNA ligase beta subunit
As for B1, in series [1], the Michaelis-Menten constant (Km) came to 247 ± 60 µM, the kcat turned out to be 2.1 ± 0.8 s⁻¹ and the kcat/Km is 8000 M⁻¹ s⁻¹. In series [2], the Michaelis constant (Km) turned out to be 18 ± 4 µM, the kcat worked out at 5.2 ± 2 s⁻¹ and the kcat/Km is 290000 M⁻¹ s⁻¹.

B2: ScctPheRS (Saccharomyces cerevisiae cytoplasmic PheRS; Yeast ct) (Saccharomyces cerevisiae S288C) (protein)
chain: SDFQLEILKKLDELDEIKSTLATFPQHGSQDVLSALNSLKAHNKLEFSKVDTVTYDLTKEGAQILNEGSYEIKLVKLIQELGQLQIKDVMSKLGPQVGKVGQARAFKNGWIAKNASNELELSAKLQNTDLNELTDETQSILAQIKNNSHLDSIDAKILNDLKKRKLIAQGKITDFNVTKGPEFSTDLTKLETDLTSDMVSTNAYKDLKFKPYNFNSQGVQISSGALHPLNKVREEFRQIFFSMGFTEMPSNQYVETGFWNFDALYVPQQHPARDLQDTFYIKDPLTADLPDDKTYMDNIKAVHEQGRFGSIGYRYNWKPEECQKLVLRTHSTAISARMLHDLAKDPKPTRLFSIDRVFRNEAVDATHLAEFHQVEGVLADYNITLGDLIKFMEEFFERMGVTGLRFKPTYNPYTEPSMEIFSWHEGLQKWVEIGNSGMFRPEMLESMGLPKDLRVLGWGLSLERPTMIKYKVQNIRELLGHKVSLDFIETNPAARLDEDLYE
notes: His-tagged purified cytoplasmic enzyme; (alpha beta)2 heterotetramer; with Phenylalanine--tRNA ligase beta subunit
For B2, in series [3], the Km came out at 1150 ± 230 µM, the kcat amounted to 26 ± 4 s⁻¹ and the kcat/Km was 23000 M⁻¹ s⁻¹. Besides, in series [4], the Michaelis-Menten constant (Km) came to 16 ± 2 µM, the kcat stood at 26 ± 4 s⁻¹ and the kcat/Km was determined as 1.6e+06 M⁻¹ s⁻¹.

Broadly, the Km is the concentration of substrate that gives half-maximal velocity. As usually defined, the kcat is the number of substrate molecules converted per active site and unit of time at saturation. A word on the kcat/Km: it is the turnover number divided by the Michaelis constant.
